Laboratory results taken from article PMC3586674.

Molecular target: T1, ECudA (Entamoeba histolytica, UniProt Q24859 1-283)
T1 sequence: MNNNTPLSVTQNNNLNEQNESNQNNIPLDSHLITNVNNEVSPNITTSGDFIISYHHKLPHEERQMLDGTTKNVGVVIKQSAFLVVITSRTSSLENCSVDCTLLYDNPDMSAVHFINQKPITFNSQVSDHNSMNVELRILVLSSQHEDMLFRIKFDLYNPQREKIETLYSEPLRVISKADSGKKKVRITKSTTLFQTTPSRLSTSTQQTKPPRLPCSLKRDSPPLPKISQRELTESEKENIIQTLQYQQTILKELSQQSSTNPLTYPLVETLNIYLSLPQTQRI
Test: competition

B1: WT 20-mer (dsDNA)
DNA 1: CACTGTGAGAATTTTCTATT
DNA 2: AATAGAAAATTCTCACAGTG
**Q.** Does B1 bind?
**A.** Result: binds
